Data on 41 sequences can be found in the nanobody polyreactivity screen of Harvey et al. (2022).

This data set can be described thus: yeast display, Sf9 membrane polyspecificity reagent, FACS + sequencing; frameworks hold sequencing errors. An outline of the steps: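 A nanobody's polyreactivity label depends on the gate it was sorted from. Yeast display cells were stained with 10% biotinylated, detergent-solubilized Sf9 membrane reagent for 1 hour at 4 °C, enriched on streptavidin microbeads and sorted by FACS. The low and high (top ~1%) gates were set on anti-HA fluorescence for expression and streptavidin fluorescence for reagent binding.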
As to “QVQLVESGGGLVQAGGSLRLSCAASGSIFEKYAMGWYRQAPGKERELVASISKRGGSTNYADSVKGRFTISRDNAKNTVYLQMNSLKPVDTAVYYCAAPANRWSTRWYYDGYDYWGQGTQVTVSS”, the “polyreactivity (PSR sort gate)” value was “high polyreactivity”.

Regarding “QVQLVESGGCLVQAGGSRRLSCDASVRIVPVYAMGWYRQAHGNERELVAAISQSGGSTYADSVKGRFTISRDNAKNTVYLQMNSLKPEDTAVYYCAARYWKWRPAYEYWGPGTQVTVSS”, the “polyreactivity (PSR sort gate)” value is on record as “high polyreactivity”.

Turning to “QVQLVESGGGLVQAGGSLRLSCAASGFTFAGNTMGWYRQAPGKERELVAAINSGGSTHYADSVKGRFTISRDNAKNTVYLQMNSLKPEDTAVYYCADYLTRYGAYYWGQGTQVTVSS”, the “polyreactivity (PSR sort gate)” value is on record as “high polyreactivity”.

For “QVQLVESGGGLVQAGGSLRLSCAASGYTISRYAMGWYIQAHGKERQLVAAISSRGGSTYYADSVKGRFTISRDNAKNTVYLQMNSLNPEDTADYYWAEDYGVGYGIVGSYYWGQGTQVTVSS”, the “polyreactivity (PSR sort gate)” value is “high polyreactivity”.

As for “QVQLVESGGGLVQAGGSLRLSCAASGNTFGYYAMGWYRQAPGKERELVAAITSSGGRTYYADSVKGRFTISRDNAKNTVYLQMNSLKPEDTAVYYCAAGRVGARYPTYRFYYWGQGTQVTVSS”, the “polyreactivity (PSR sort gate)” value is listed as “high polyreactivity”.

Turning to “QVQLVESGGGLVQAGGSLRLSCAASGRPSSLMNMGWYRQAPGKERELVAAISTSGGSTYYADSVKGRFTISRDNAKNTVYLQMNSLKPEDTAVYYCAATIGRRSYNQMYYWGQGTQVTVSS”, the “polyreactivity (PSR sort gate)” value was “high polyreactivity”.

With “QLQLVDSGGGLVQAGGRLSLSCAASGSIFYRYAMGWYIQAPGKERELVAAITSGGRTYYADSVKGRFTISRDNAKNTVYLQMNSLNPEDTAVYFCNAVYRKTSYGYWGQGTQVTVSS”, the “polyreactivity (PSR sort gate)” value was “high polyreactivity”.

For “QVQLVESRGGLVQAGGSLRLSCAASGITFTRNVMGWYRPAPGKERELVAGISRSGGRTYYADSVKGRFTISRENAKNTVYLQMNSLKPEDTAVYYCAADYSRRTRVDDDYDYWGQGTQVTVSS”, the “polyreactivity (PSR sort gate)” value was “high polyreactivity”.

Consider “QVQLVESGGGLVQAGGSLRLSCAASGSTFHYYAMGWYRQEPGKERELVAAISGSGSSTYYADSVKGRFTISRDNAKNTVYLQMNSLKPEDTAVYYCNARGHYPRARFGYKSGSDRYWGQGTQVTVSS”, for which the “polyreactivity (PSR sort gate)” value is given as “high polyreactivity”.

With “QDQLVESGGGLVQAGGSLRLSCAASGGIFPPNVMGWYRQAPGKERELVAAISRSGGSTYYADSVKGRFTFSRDNAMNTVYLQMNSLKPEDTAVYYCAAANTQRGFRYDYWGQGTQVTVSS”, the “polyreactivity (PSR sort gate)” value is on record as “high polyreactivity”.

On to “QVQLVESGGGLVQAGGSLRLSCAASGRTFRYYAMGWYRQAPGKERELVAAITGSGGSTYYADSVKGRFTISRDNAKNTVYLQMHSLKPEDTAVYYCNTYLSRWSGERDYWGQGTQVTVSS”, for which the “polyreactivity (PSR sort gate)” value is listed as “high polyreactivity”.

For the sequence “QVQLVESGGGLVQAGGSLRLICAASGRIFYINAMGWYRQPPGKERELVAAITGGDGSTTYADSVKGRFTISRDNAKNTVYLQMNSLKPEDTAVYYCYADTARKYAESQFDHWGQGTQVTVSS”, the “polyreactivity (PSR sort gate)” value is “low polyreactivity”.

On to “QVQLVESGGGLVQAGGSLRLSCAASGFIFRQYAMGWYRQAPGKERELVAAISRSGGSTYYADSVKGRFTISRDNAKNTVYLQMNSLKPEDTAVYYCAVRYNQWYLNFGRYDYWGQGTQVTVSS”, for which the “polyreactivity (PSR sort gate)” value is listed as “high polyreactivity”.

With “QVQLVESGGGLVQAGGSLRLICDASGRTFVRYAMGWYRQAPGKERELVAAITRSASTYYADSVKGRFTISRDNAKNTVYLQMNSLKPEDTAVYYCNAGRKYWFGRAGGYDYWGQGTQVTVSS”, the “polyreactivity (PSR sort gate)” value is “high polyreactivity”.

With “QVQLEESGGGLVQAGGSLRLSCAASGRSFRKYAMGWYRQAPGKERELVARISWSAGSTYYADSVKGRFKISRDIAMYTVYLQMNSLKPVDTAFYFCIDDGYYRYGNRVLRPGYYCGQGTQVTVSS”, the “polyreactivity (PSR sort gate)” value is “high polyreactivity”.

“QVQLVESGGVLVQAGGSLRLSCAASGSISYSYAMGWYRQAPGKERELVAAITWGGDSTYYADSVKGRFTISRDNAKNTVYLQMNSLKPEDTAVYYCAADLRFTYPVYRAGGGYDYWGQGTQVTVSS”: the “polyreactivity (PSR sort gate)” value was “low polyreactivity”.

Turning to “QVQLVESGGGLVQAGGSLRLSCAASGRIFAYYAMGWYRQAPGKEREVVAAISRSGVSTYYADSVKGRFTISRDNAKNTVYLQMNSLKPEDTAVYYCAARWRYGFTSGDYWGQGTQVNVSS”, the “polyreactivity (PSR sort gate)” value was “low polyreactivity”.

Regarding “QVLLVESGGGLVQAGGSLRLSCAASGSTIRYYAMGWYRQAPGKERELVAAISWRGGSTYYADSVKGRFTISRDNAKYTVYLQMNSLKPEDTAVYYCAVEAVAYGFFHYDYWGQGTQVTVSS”, the “polyreactivity (PSR sort gate)” value is on record as “high polyreactivity”.

Consider “QVQLVESGGGLVQAGGSLRLSCAASGYTFVLNAMGWYRQAPGKEREMVAAINLDSGNTNYADSVKGRFTISRDNAKNTVYLQMNSLKPEDTAVYYCNTDVKFGGTAYDYWGQGTQVNVSS”, for which the “polyreactivity (PSR sort gate)” value was “low polyreactivity”.

As to “QVQLVESGGGLDQAGGSLRLSCAASGFIFPAYAMGWYRQAPGKERELVAAITTRGGSTYYADSVKGRFTISRDNAKNTVYLQMNSLKPEDTAVYYCAAYAVWYRYYYWGQGTQVTVSS”, the “polyreactivity (PSR sort gate)” value was “low polyreactivity”.

As for “QVQLVESGGGLVQAGGSLRLSCAASGITFWYYAMGWYRQAPGKERELVAAINWSGGSTYYADSVKGRFTISRDNAKNTVYLQMNSLKPEDTAVYYCAAEFGLWPYEYGYWGQGTQVTVSS”, the “polyreactivity (PSR sort gate)” value is on record as “high polyreactivity”.

With “QVQLVESGGGLVKAGGSLRLTCAASGRIFGPYVMGWYRQAPGKERELVAAISTSGTSTYYADSVKGRFTISRDNAKNTVYLQMNSLKPEDTAVYYCAKRSGARHRLMDYWGQGTQVTVSS”, the “polyreactivity (PSR sort gate)” value was “low polyreactivity”.

For “QVQLVESGGGLVQAGGSLRLSCAASGRTFFYNAMGWYRQAPGKERELVAAISKNGGNTYYADSVKGRFTISRDNAKNTVYLQMNSLKPEDTAVYYCAARQSRTGPDRNDYWGQGTQVTVSS”, the “polyreactivity (PSR sort gate)” value is on record as “high polyreactivity”.

With “QVQLVESGGGLVQAGGSLRLSCAASGRIFYSYAMGWYRQAPGKERELVAAITRGGSTSYADSVKGRFTISRDNAKNTVYLQMNSLKPEDTAVYYCATRQFYSYWKYYYWGQGTQVTVSS”, the “polyreactivity (PSR sort gate)” value is listed as “high polyreactivity”.

For the sequence “QVHLVESGGGLVQAGGSLRLSCAASGFIFYSNMGWYRQAPGKESEFVAAITWRGGSTYADSVKRRFTISRDNAKNSVYLQMNILKPEDPAVSYCAGESYRAHTPGHPSCTRFGYWGQGTHVTVSS”, the “polyreactivity (PSR sort gate)” value is on record as “high polyreactivity”.

Turning to “QVQLVESGGGLVQAGGSLRLSCSASGLIFWAYAMGWYRQAPGKERELVAAINWRGGSTYYADSVKGRFTISRDNAKNTVYLQMNSLKPEDTAVYYCNTDFQLGEGGSYGYDYWGQGTQVTVSS”, the “polyreactivity (PSR sort gate)” value was “low polyreactivity”.

As to “QVQLVESGGGLVQAGGSLRLSCAASGRIFFVNTMGWYRQAPGNERELVATLSWSGGSTYYADSVKGRFTISRDNAKNTVYLQMNSLKPEDTAVYYCAAVGYTTYRRYDYWGQGTQVTVSS”, the “polyreactivity (PSR sort gate)” value is reported as “low polyreactivity”.

“QVQLVESGGGLDQAGGSLRLSCAASGRIFQYYAMGWYRQAPGKERELVAAITSGGRTTYADSVKGRFTISRDNAKNNVYLQMNSLKPEDTAVYYCNAKTWYSYNYWGQGTQVTVSS”: the “polyreactivity (PSR sort gate)” value is recorded as “high polyreactivity”.

For “QVQLVESGGGLVQAGGSLRLSCADSGIIFWRYAMGWYRQAPGKERELVATITSGGSTDYADSVKGRFTISRDNAKNTVYLQMNSLKPEDTAVYYCAALGYATGYWRYYYWGQGTQVTVSS”, the “polyreactivity (PSR sort gate)” value was “low polyreactivity”.

Regarding “QVQLVESGGGLVQAGGSLRLSCAASGRTIVRYAMGWYRQAPGKERDLVAAITARGGSTYYADSVKGRFTISRDNAKNTVYLQMNRLKPEDTEVYYCATYYSGSLGRYYYWGKGTQVTVSS”, the “polyreactivity (PSR sort gate)” value is listed as “high polyreactivity”.

As to “HVQLQETGGGLVQAGGSLRLSCAASGSIFQATYMGWYRQAPGKEREFVASITYGSITIYADSVKGRFTIGRDNAKDTLYLQMNSLKPEDTAVYYCAVDRHYIPAFHYWGQGTQVTVSS”, the “polyreactivity (PSR sort gate)” value was “low polyreactivity”.

Regarding “QVQLVESGGGLVQAGGSLRLSCAASGFTFDWYAMGWSRQAPGKERELVAAISSSGTSRYYADSVKGRFTISRDNAKNTVYLQMNSLKPEDTAVYYCAARWYYVTPLRRYGYWGQGTQVTVSS”, the “polyreactivity (PSR sort gate)” value is given as “high polyreactivity”.

As for “QVQLVESGGGLVQAGGSLRLSCAASGSTFVYYDMGWFRQAPGKERELVASISWSGGSTRYADSVKGRFTISRDNAKNTVYLQMNSLKPEDTAVYYCNKSNPDYDGLAIHAFDYWGQGTQVTVSS”, the “polyreactivity (PSR sort gate)” value was “low polyreactivity”.

On to “QVQLVESGGGLVQAGGSLRLSCAASGIIFSFYAMGWYRQAPGKERELVADITLSGGRTYYADSVKGRFTISRDNAKNTVYLQMNSLKPEDTAVYYCNDETYERGDYWGQGTKVTVSS”, for which the “polyreactivity (PSR sort gate)” value is recorded as “high polyreactivity”.

Take “QVQLVESGGGLVQAGGSLRLSCAASGSTSFTYMGWYRQAPGTEREVVAAIDESGGSTYYADSVKGRFTISRDNAKNTVYLQMNTLKPEDTAGYYCTRRYGRSYRWGNGYWGQGTQVTVSA”: the “polyreactivity (PSR sort gate)” value is recorded as “low polyreactivity”.

“QVQLVESGGGLVQAGGSLRLSCAASGFIFRYYAMGWYRQAPGKERELVAAISWRGGTTYYADSVKGRFTFSRDNAKNTVYLQMNSLKPDDTAVYYCAADWQWDLGPYIYQVEYWGQGTQVTVSS”: the “polyreactivity (PSR sort gate)” value is given as “high polyreactivity”.

In the case of “QVQLEESGGALVQAGGSLRLSCAASGFTFYRNALGWNRQAPGQERELVGAITRGGSTTYADSVKGRFTISRDNAKNTVYLQMNRMKPEDTAVYYCAAPKYIWYRDLNYWGQGTQVTVSS”, the “polyreactivity (PSR sort gate)” value is reported as “high polyreactivity”.

Take “QVQLVESGGGLVQAGGSLRLSCAASGSTINSYTKGWYSQAPRKERELVAAISGSSGRTYDADSVKGRFTISRDNAKNTVYLQMNSLKPEDTAVYYGAAVDLYGGSDYWGQGTQVTVSS”: the “polyreactivity (PSR sort gate)” value is “high polyreactivity”.

With “QVQLVESGGGLDQAGGSLRLSCAAAGSIFDYYAMGSYRQAPGKERELVAAISWSGGSTYFADSVKGRFTISRDNAKNTVYLQMNSLKPEDTAVYYCAARGFWGQGTQVTVSS”, the “polyreactivity (PSR sort gate)” value is on record as “low polyreactivity”.

Take “QVQLVESGGGLVQAGGSLRLSCAPSGSTFTSYAMGWYRQAPGKDRELVAAITYGSGTTYADSVKGRFTISRDNAKNTVYLQMNSLKPEDTAVYYCAADFYYPVLGHGFPTYEYDYWGQGTQVTVSS”: the “polyreactivity (PSR sort gate)” value was “low polyreactivity”.

In the case of “QVQLVESGGGLVQAGGSLRLSCAASGRTFAGNAMGWYRQAPGKERELVAAISWSGGRTYYADSVKGRFTISRDNAKNTVYLQMNSLKPEETAVYYCAAVRASSRFRYGYWGQGTQVTVSS”, the “polyreactivity (PSR sort gate)” value is on record as “high polyreactivity”.
